Here are results for one substance from patent US20260201029A1.

For experiment [1], the target named is cynomolgus FcγRI (cynomolgus). The experiment in a line: SPR, receptor captured by anti-his, antibody injected, 1:1 fit.
Experiment [2] deals with cynomolgus FcγRIII (cynomolgus) (UniProt Q8SPW2). The experiment is described as above.
The target in experiment [3] is human FcγRI (human) (UniProt P12314). The description is as above.
For experiment [4], the target named is human FcγRIIIa 158F allele (human) (UniProt P08637). The description is as above.
The target of experiment [5] is human FcγRIIIa 158V allele (human) (UniProt P08637). The experiment is described as above.
In experiment [6] the target is cynomolgus FcγRIIa (cynomolgus). The experiment can be described thus: SPR, receptor captured by anti-his, antibody injected, steady-state fit. In general terms: SPR reads the build-up and loss of mass on a sensor chip optically.
Experiment [7] has as its target cynomolgus FcγRIIb (cynomolgus). The description is as above.
Experiment [8] addresses human FcγRIIa (human) (UniProt P12318). Described as above.
The target of experiment [9] is human FcγRIIb/c (human) (UniProt P31994). The description is as above.
human FcγRIIb/c (human), sequence (P31994 46-217 limits assumed): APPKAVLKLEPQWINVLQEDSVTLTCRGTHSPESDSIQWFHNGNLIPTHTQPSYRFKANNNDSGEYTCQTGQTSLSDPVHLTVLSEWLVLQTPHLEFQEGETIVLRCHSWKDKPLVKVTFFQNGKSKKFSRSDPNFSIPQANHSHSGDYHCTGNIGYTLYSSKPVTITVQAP

human FcγRIIa (human), sequence (P12318 36-218 limits assumed): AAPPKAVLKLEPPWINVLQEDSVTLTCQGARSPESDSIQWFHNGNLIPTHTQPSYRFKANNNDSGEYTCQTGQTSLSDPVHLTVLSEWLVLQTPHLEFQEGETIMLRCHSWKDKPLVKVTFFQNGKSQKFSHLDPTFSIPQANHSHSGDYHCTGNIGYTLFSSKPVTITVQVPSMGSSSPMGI
human FcγRI (human), sequence (P12314 16-288 limits assumed): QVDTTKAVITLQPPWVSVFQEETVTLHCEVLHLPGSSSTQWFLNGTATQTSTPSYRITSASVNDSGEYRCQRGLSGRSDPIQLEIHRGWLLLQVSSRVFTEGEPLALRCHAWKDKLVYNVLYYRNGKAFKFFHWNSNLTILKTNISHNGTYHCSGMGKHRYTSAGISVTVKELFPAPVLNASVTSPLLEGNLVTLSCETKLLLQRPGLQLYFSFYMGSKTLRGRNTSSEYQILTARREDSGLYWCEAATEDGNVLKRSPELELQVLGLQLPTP
human FcγRIIIa 158V allele (human), sequence (P08637 17-208 F176V limits assumed): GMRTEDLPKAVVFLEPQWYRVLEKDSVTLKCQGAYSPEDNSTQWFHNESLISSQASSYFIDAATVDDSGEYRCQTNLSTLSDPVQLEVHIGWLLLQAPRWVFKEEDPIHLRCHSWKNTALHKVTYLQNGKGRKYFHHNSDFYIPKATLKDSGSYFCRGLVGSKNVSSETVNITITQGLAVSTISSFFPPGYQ
human FcγRIIIa 158F allele (human), sequence (P08637 17-208 limits assumed): as the sequence (P08637 17-208 F176V limits assumed) above, with V160F counted along it
cynomolgus FcγRIII (cynomolgus), sequence (Q8SPW2 17-208 limits assumed): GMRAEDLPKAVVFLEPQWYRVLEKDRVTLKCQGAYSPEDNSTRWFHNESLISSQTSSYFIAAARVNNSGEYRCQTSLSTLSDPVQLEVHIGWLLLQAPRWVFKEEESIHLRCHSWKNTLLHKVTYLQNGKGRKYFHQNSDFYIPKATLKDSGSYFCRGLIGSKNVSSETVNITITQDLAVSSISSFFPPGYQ

By Kd is commonly meant a measure of binding affinity in units of concentration. As to wt IgG1 control (antibody), the Fold increase in binding (vs wt IgG1 control) in experiment [1], in experiment [3], in [6], in [7], in [8] and in [9] was 1 fold in each case. In addition, the dissociation constant Kd in [1] came to 0.0015 µM; in experiment [2], 0.395 µM; in [3], 0.0029 µM; in experiment [4], 3.78 µM; in experiment [5], 0.905 µM; in experiment [6], 8.15 µM. In addition, the results for the Kd in experiment [7], in experiment [8] and in [9] were 4.45 µM, 9.33 µM and 11.2 µM, respectively.
